Here are results for three molecules from patent publication US20250154256A1 (AUGUSTA UNIVERSITY RESEARCH INSTITUTE, published 2025).

Where two headings read alike, the source gives them in different places.

Usually Kd stands for the constant that tells how readily two partners part at equilibrium. A high value points to a looser complex. In general, EC50 (read off the curve) refers to the concentration needed to bring the measured effect to its halfway point. The low end stands for an effect from little substance, the high end for a need for much substance. As a reminder, the koff is the first-order rate constant of dissociation. Low readings indicate slow dissociation, high ones fast dissociation. The term kon denotes a measure of how fast the partners come together. The low end stands for slow association, the high end for fast association.

In assay [1] the target is T1, human PD-1 (human, UniProt Q15116 25-167, limits assumed).
T1 construct: Analyte in solution in the Biacore runs; also called programmed cell death protein 1
T1 sequence (Q15116 25-167 limits assumed): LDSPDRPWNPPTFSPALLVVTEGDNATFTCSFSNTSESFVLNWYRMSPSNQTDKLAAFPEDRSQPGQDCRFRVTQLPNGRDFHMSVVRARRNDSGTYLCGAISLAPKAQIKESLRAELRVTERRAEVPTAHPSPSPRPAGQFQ
The assay is described as follows: SPR (Biacore), antibody as ligand, PD-1 as analyte. On the technique in general: SPR reads the build-up and loss of mass on a sensor chip optically.

The target in a further assay is T2, human PD-1-Fc (human, UniProt Q15116 25-170, limits assumed).
T2 construct: ELISA antigen
T2 sequence (Q15116 25-170 limits assumed): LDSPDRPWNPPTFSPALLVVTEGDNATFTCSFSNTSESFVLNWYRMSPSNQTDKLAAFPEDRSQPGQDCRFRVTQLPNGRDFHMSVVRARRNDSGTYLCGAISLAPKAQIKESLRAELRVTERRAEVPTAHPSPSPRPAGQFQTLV
As to the kind of experiment: ELISA, binding to human PD-1-Fc.

Assay [2] has as its target T3, mouse PD-1 (mouse, UniProt Q02242 25-167, limits assumed).
T3 construct: Analyte in solution in the Biacore runs
T3 sequence: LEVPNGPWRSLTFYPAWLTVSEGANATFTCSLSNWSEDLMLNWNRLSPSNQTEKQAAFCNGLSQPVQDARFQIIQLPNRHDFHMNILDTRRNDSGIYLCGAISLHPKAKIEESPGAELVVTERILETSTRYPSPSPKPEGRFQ
As to the kind of experiment: SPR (Biacore), antibody as ligand, PD-1 as analyte.

The target of assay [3] is T1, human PD-1. As to the kind of experiment: SPR (Biacore), antibody as ligand, PD-1 as analyte. The source holds these as a separate data set.
For assay [4], the target named is T3, mouse PD-1. The assay is described as follows: SPR (Biacore), antibody as ligand, PD-1 as analyte. The source holds these as a separate data set.
Assay [5] addresses T1, human PD-1. The assay is described as follows: SPR (Biacore), antibody as ligand, PD-1 as analyte. This is another data set of the same source.

B1: monoclonal antibody 4G9 (antibody, mouse IgG2b, kappa, V domains shown)
VH: QIQLVQSGPELKKPGETVKISCKASGYTFTTYGMTWVKQAPGKGLKWMGWINTYSGVPTYADDFKGRFAFSLETSASTAYLQINNLKNEDTATYFCARGGRGFAYWGQGTLVTVSA
VL: DILLTQSPAILSVSPGERVSFSCRASQSIGTSIHWYQQRTNGSPRLLIKYASESISGIPSRFSGSGSGTDFTLSINSVESEDIADYYCQQSNSWPYTFGGGTKLEIKR
notes: also called 4G9 anti-PD-1 antibody
For B1, in the assay with human PD-1 [1], the Ka is 952000 M⁻¹ and the Kd amounted to 1050 nM. Besides, the “EC50 (read off the curve)” value with human PD-1-Fc was roughly 0.5 µg/mL. In the assay with mouse PD-1 [2], this molecule registered a Ka of 194000 M⁻¹, a Kd of 5.15 µM, a koff of 0.0103 s⁻¹ and a kon of 2000 M⁻¹ s⁻¹.

B2: monoclonal antibody 5C2 (antibody, IgG1, V domains shown)
VH: QVQLQQPGAELVKPGASVKVSCKASGYTFTSYWMHWVKQRPGQGLEWIGRIHPSDSDTNYNQKFKGKATLTVDKSSSTAYMQLSSLTSEDSAVYYCAPYGNYASGFAYWGQGTLVTVSA
VL: DIVMTQSHKFMSTSVGDRVSITCKASQDVSTAVAWYQQKPGQSPKLLIYWASTRHTGVPDRFTGSGSGTDYTLTISSVQAEDLALYYCQQHYSTPWTFGGGTKLEIKR
notes: the two clones are reported with different SPR values; also called 5C2 anti-PD-1 antibody
Consider B2, for which, in the assay with human PD-1-Fc, the “EC50 (read off the curve)” value was roughly 1 µg/mL. For the same molecule, the Ka in the assay with human PD-1 [3] was 202000 M⁻¹; in the assay with mouse PD-1 [4], 1.18e+06 M⁻¹. The figures for the Kd in the assay with human PD-1 [3] and in the assay with mouse PD-1 [4] were 4.95 µM and 850 nM, respectively.

B3: monoclonal antibody 4C12 (antibody, mouse IgG1, kappa, V domains shown)
VH: B2 VH
VL: B2 VL
notes: also called 4C12 anti-PD-1 antibody
For the molecule B3, in the assay with human PD-1 [5], the Ka came to 3.14e+06 M⁻¹ and the Kd was found to be 319 nM.
